Source: PMC11289669, “BAR502/fibrate conjugates: synthesis, biological evaluation and metabolic profile” (Frontiers in Chemistry, 2024)
No end group written: not given here.

What was measured:
[1] = test system: U937 cells; test: Pro-inflammatory gene expression (qRT-PCR) in LPS-activated U937 cells; type: cell-based, human; settings: LPS 100 ng/mL, 18 h, BAR502 and clofibrate 5 and 10 μM, compound 1 10 μM
Procedure: U937 cell line were cultured in RPMI 1640 supplemented with 10% FBS, 1% glutamine, and 1% penicillin/streptomycin and were regularly passaged to maintain exponential growth. After 24 h of starvation cells were classically activated with LPS (100 ng/mL; Sigma-Aldrich, St. Louis, MO), and exposed or not to BAR502, clofibrate and compound 1 at the concentration of 5 and 10 μM for 18 h. At the end of the experiment the cells were recovered. Total mRNA extraction from U937 and 3T3.L1 was performed using Tri-Reagent (Zymo Research) and Direct-zolTM RNA MiniPrep w/Zymo-SpinTM IIC Columns (Zymo Research, Irvine, CA). After purification from genomic DNA using DNase I (Thermo Fisher Scientific, Waltham, MA), 1 μg of RNA from each sample was reverse transcribed using Kit […] Basic (Nippon Genetics, […] 20-μL of reaction volume; 50 ng of cDNA was amplified in a 20-μL solution containing 200 nM each primer and 10 μL of PowerUpTM SYBRTM Green Master Mix (Thermo Fisher Scientific, Waltham, MA). All reactions were performed in triplicate using the following thermal cycling conditions: 3 min at 95°C, followed by 40 cycles of 95°C for 15 s, 56°C for 20 s, and 72°C for 30 s, using a QuantStudio 3 system (Applied Biosystems, Foster City, CA). The relative mRNA expression was calculated accordingly to the ΔCt method. Primers were designed using the software PRIMER3 (http://frodo.wi.mit.edu/primer3/) using published data obtained from the NCBI database. The primer used were as following (forward and reverse): hGAPDH (for […]-1β (for [NT], hIL6 (for [NT] hCXCL2 (for [NT] hTNFα; (for [NT], mAdiponectin (for […]ɤ (for [NT], mCebp (for [NT]

[2] = Microsomal stability in human liver microsomes; type: in vitro ADME
Procedure: Chemical stability in HCl Buffer, PBS buffer and culture medium (EMEM) was evaluated by LC-MS dissolving compound 1 at 10 μM (final concertation) in cited buffers and injecting aliquots removed from incubations at different time points. Microsomal stability was evaluated employing 50 mM potassium phosphate buffer (pH 7.4) containing 0.15 mg of Human liver microsomes (Sigma-Aldrich, St. Louis, MO, United States) 5 mM MgCl2, 1 mM NADPH, 5 mM glucose 6-phosphate, 0.4 U·mL^−1 glucose 6-phosphate dehydrogenase. Compounds were tested at 1 µM final concentration. Aliquots, removed at different time points, were diluted with ice-cold acetonitrile and analyzed by LC-MS.

[3] = biological target: T1, PPARα LBD GST fused; test: AlphaScreen or HTRF; coactivator recruitment; 20 nM GST-PPARα-LBD, 60 nM biotinylated SRC1 peptide, 20 μg/mL donor and acceptor beads; 50 mM MOPS, 50 mM NaF, 0.05 mM CHAPS, 0.05% BSA, pH 7.4; 25 μL, 384 wells; compounds at 50 μM for efficacy (% vs. fenofibrate)
T1 sequence (Q07869 whole entry, species assumed, looked up): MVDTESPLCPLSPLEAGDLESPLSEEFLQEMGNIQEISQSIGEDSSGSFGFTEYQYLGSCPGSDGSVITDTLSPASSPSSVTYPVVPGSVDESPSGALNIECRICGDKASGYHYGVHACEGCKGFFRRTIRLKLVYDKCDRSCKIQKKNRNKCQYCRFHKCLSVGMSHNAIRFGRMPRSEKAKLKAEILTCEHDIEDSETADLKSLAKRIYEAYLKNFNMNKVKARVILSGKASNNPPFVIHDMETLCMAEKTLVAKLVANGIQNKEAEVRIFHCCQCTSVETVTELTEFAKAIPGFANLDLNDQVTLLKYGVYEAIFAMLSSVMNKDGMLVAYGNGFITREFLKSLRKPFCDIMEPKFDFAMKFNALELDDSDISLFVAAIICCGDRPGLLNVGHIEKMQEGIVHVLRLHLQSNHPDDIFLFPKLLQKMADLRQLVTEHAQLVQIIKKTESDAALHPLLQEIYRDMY

[4] = biological target: T2, FXR-LBD GST-fused; test: AlphaScreen or HTRF; coactivator recruitment; 10 nM GST-FXR-LBD, 30 nM biotinylated SRC1 peptide, 20 μg/mL donor and acceptor beads; 50 mM Tris-HCl pH 7.4, 20 mM KCl, 1 mM DTT, 0.1% BSA; 25 μL, 384 wells; compounds at 10 μM for efficacy (% vs. CDCA), concentration-response for EC50
T2 sequence (Q96RI1 whole entry, species assumed, looked up): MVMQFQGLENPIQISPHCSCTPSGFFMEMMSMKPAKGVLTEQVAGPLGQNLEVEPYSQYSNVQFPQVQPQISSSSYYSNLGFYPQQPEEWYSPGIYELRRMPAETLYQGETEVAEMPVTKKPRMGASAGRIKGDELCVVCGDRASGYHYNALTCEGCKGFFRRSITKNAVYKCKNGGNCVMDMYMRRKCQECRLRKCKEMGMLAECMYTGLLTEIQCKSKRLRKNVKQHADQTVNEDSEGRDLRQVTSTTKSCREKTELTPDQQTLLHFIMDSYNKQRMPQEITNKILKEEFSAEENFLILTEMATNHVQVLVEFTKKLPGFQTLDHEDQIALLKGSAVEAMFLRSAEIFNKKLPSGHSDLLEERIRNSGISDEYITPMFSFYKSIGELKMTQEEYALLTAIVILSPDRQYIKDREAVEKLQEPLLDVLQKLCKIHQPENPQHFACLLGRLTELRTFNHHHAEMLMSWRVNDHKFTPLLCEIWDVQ

Molecule | IL-1β mRNA expression [1] | IL-6 mRNA expression [1] | Time to conversion in clofibric acid in human microsomes [2] | efficacy of SRC-1 recruitment with BAR502 (% vs. fenofibrate) (% vs. fenofibrate) [3] | efficacy of SRC-1 recruitment with BAR505 (% vs. fenofibrate) (% vs. fenofibrate) [3] | EC50 of compound 1 for SRC-1 recruitment (the compound is titrated) [4] | EC50 of compound 3 for SRC-1 recruitment (the compound is titrated) [4] | EC50 of the compound BAR502 for SRC-1 recruitment (the compound is titrated) [4] | efficacy of SRC-1 recruitment with BAR502 (% vs. CDCA) [4] | efficacy of SRC-1 recruitment with compound 1 (% vs. CDCA) [4] | efficacy of SRC-1 recruitment with compound 3 (% vs. CDCA) [4]
CCOC(=O)C(C)(C)Oc1ccc(Cl)cc1 [clofibrate] | reducing the expression of pro-inflammatory cytokines | reducing the expression of pro-inflammatory cytokines | ≤ 30 min | – | – | – | – | – | – | – | –
CPSSHSSLTERHKILHRLLQEGSPS (also: biotin, position not given here) [biotinylated SRC1 peptide] | – | – | – | 36 | 40 | 3.4 µM | 17.9 µM | 0.69 µM | 153 % vs. CDCA | 79 % vs. CDCA | 48 % vs. CDCA
